Paper PMC3079366
Read-outs that look alike come from different tables or passages of the source.

Measured: localisation_or_trafficking

GluA1: GluA1-4KR (K813, K819, K822, K868 to R) co-transfected with Nedd4-1 in HEK293T
abolishes: ubiquitination at K813 | ubiquitination at K819 | ubiquitination at K822 | ubiquitination at K868
